In US20200371101A1:
Values belong to the substance of their own block, whether it stands above or below them.

Tests used:
[1] = target: His-tagged IDO1 human recombinant protein (71182, BPS Biosciences) (human) (UniProt P14902); assay: ELISA: biotin-PEG3 macrocycle on NeutrAvidin plate, His-tagged human IDO1 titrated, AP-conjugated anti-6XHis antibody, fluorescence
[2] = target: His-tagged IDO1 human recombinant protein (71182, BPS Biosciences) (human) (UniProt P14902); assay: cell-based or functional assay
[3] = target: His-tagged IDO1 human recombinant protein (71182, BPS Biosciences) (human) (UniProt P14902); assay: ELISA: biotinylated peptide on NeutrAvidin plate, 6xHis-tagged human IDO1 titrated
[4] = target: murine IDO1 protein (mouse) (UniProt P28776); assay: ELISA, immobilized macrocycle, mouse IDO1 titrated
Chain of murine IDO1 protein (mouse) (P28776 2-406 limits assumed): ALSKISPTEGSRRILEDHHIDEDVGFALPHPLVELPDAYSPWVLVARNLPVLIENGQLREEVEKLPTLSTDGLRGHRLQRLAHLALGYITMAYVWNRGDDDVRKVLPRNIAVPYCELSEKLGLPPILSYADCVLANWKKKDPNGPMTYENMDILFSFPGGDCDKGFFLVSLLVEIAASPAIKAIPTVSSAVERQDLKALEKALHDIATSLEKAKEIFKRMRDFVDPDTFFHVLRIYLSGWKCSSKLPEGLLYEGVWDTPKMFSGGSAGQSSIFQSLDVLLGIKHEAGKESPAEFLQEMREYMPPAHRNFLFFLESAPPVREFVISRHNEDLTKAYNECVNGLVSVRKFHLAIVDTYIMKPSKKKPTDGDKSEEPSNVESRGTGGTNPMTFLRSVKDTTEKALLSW

[5] = target: His-tagged IDO1 human recombinant protein (71182, BPS Biosciences) (human) (UniProt P14902); assay: sandwich ELISA: biotinylated macrocycle on NeutrAvidin plate, His-tagged IDO1 titrated, anti-6XHis-AP detection
[6] = target: His-tagged IDO1 human recombinant protein (71182, BPS Biosciences) (human) (UniProt P14902); assay: ELISA, immobilized macrocycle, human IDO1 titrated
[7] = target: His-tagged IDO1 human recombinant protein (71182, BPS Biosciences) (human) (UniProt P14902); assay: binding analysis, method not named
[8] = target: His-tagged IDO1 human recombinant protein (71182, BPS Biosciences) (human) (UniProt P14902); assay: sandwich ELISA: 200 nM biotinylated macrocycle immobilized on NeutrAvidin plate, His-tagged IDO1 titrated, anti-6XHis-AP detection

Chain of His-tagged IDO1 human recombinant protein (71182, BPS Biosciences) (human) (P14902 2-403 limits assumed): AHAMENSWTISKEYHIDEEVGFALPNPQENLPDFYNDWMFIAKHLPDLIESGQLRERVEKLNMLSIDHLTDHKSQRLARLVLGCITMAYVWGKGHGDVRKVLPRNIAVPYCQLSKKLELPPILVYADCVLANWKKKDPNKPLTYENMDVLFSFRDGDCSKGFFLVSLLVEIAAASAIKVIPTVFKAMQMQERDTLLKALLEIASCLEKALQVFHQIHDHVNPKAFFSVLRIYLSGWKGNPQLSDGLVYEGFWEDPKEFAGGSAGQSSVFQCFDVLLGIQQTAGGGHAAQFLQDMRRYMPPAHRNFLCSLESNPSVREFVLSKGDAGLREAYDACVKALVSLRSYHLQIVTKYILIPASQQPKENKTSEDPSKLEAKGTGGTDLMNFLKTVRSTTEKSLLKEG

Substance: nlf(Me-Trp) (peptide)
EC50 [1]: 45 nM

Substance: apww(F-Phe) (peptide)
EC50 [1]: 106 nM

Substance: Biotin-PEG3-Cy(spaw(F-Phe)) (peptide)
EC50 [1]: 111 nM

Substance: Biotin-PEG3-Cy(frf(Me-Trp)a) (peptide)
EC50 [1]: 57 nM

Substance: Biotin-PEG3-Cy(sww(F-Phe)) (peptide)
EC50 [1]: 70 nM

Substance: naf(Me-Trp)(F-Phe) (peptide)
EC50 [1]: 82 nM

Substance: Biotin-PEG3-Cy(frf(Me-Trp)) (peptide)
EC50 [1]: 12 nM

Substance: nlf(Me-Trp)a (peptide)
EC50 [1]: 104 nM

Substance: biotin-PEG3-Cy(nlf(Me-Trp)(F-Phe)) (peptide)
EC50 [7]: 44 nM
EC50 [4]: 89 nM
EC50 [5]: 20 nM
EC50 [6]: 19 nM

Substance: biotin-PEG3-Cy(spww(F-Phe)) (peptide)
IC50, IDO1 Fluorogenic Inhibitor Screening Assay (enzyme inhibition) [2]: > 40000 nM
EC50 [4]: 44 nM
EC50 [5]: 65 nM
EC50 [6]: 85 nM

Substance: biotin-PEG3-Cy(rys(Me-Trp)r) (peptide)
IC50, IDO1 Fluorogenic Inhibitor Screening Assay (enzyme inhibition) [2]: > 40000 nM
EC50 [4]: 17 nM
EC50 [8]: 81 nM
EC50 [6]: 91 nM

More lines, now with the values ahead:

EC50 [1]: 69 nM
Substance: nlfa(F-Phe) (peptide)

EC50 [1]: 107 nM
Substance: fra(Me-Trp)s (peptide)

IC50, IDO1 Fluorogenic Inhibitor Screening Assay (enzyme inhibition) [2]: > 40000 nM
EC50 [3]: 20 nM
EC50 [4]: 36 nM
EC50 [5]: 20 nM
EC50 [6]: 18 nM
Substance: biotin-PEG3-Cy(frf(Me-Trp)s) (peptide)

EC50 [1]: 111 nM
Substance: spwwa (peptide)

EC50 [5]: 68 nM
Substance: biotin-PEG3-Cy(nsh(F-Phe)r) (peptide)

EC50 [1]: 42 nM
Substance: Biotin-PEG3-Cy(saww(F-Phe)) (peptide)

EC50 [1]: 128 nM
Substance: n-f(Me-Trp)(F-Phe) (peptide)

EC50 [1]: 39 nM
Substance: Biotin-PEG3-Cy(lf(Me-Trp)(F-Phe)) (peptide)

EC50 [1]: 144 nM
Substance: spww (peptide)

EC50 [1]: 79 nM
Substance: Biotin-PEG3-Cy(arf(Me-Trp)s) (peptide)

EC50 [1]: 50 nM
Substance: alf(Me-Trp)(F-Phe) (peptide)

EC50 [1]: 116 nM
Substance: nla(Me-Trp)(F-Phe) (peptide)

EC50 [1]: 104 nM
Substance: pww(F-Phe) (peptide)

EC50 [3]: 124 nM
EC50 [5]: 124 nM
Substance: biotin-PEG3-Cy(nsfr(Me-Trp)) (peptide)

EC50 [4]: 48 nM
EC50 [5]: 43 nM
EC50 [6]: 51 nM
Substance: biotin-PEG3-Cy(nlw(Me-Trp)r) (peptide)
